Results reported in the supplement of paper PMC10567573.

B1: RTN2 (parent)
chain: SERPLEDLRLRLDHLGWVARGTGS
B2: SCNN1D (parent)
chain: FYRLYQDLETHRLPCTSRCPRPCR

Variants of: B1
Assay: protein stability index of a GFP-peptide fusion (GPS, HEK-293T) (PSI 1-6); higher = more stable
Settings: c terminus: a fixed tail appended
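Further: lentivirally expressed fusions sorted by FACS into six bins by GFP to DsRed ratio, PSI derived from sequencing read proportions per bin multiplied by bin number.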

| Variant | protein stability index |
| --- | --- |
| G21I | 1.61 |
| S1M | 2.73 |
| S1G | 2.87 |
| S1E | 2.74 |
| S1N | 2.57 |
| S1L | 1.76 |
| S1P | 2.66 |
| S1I | 3.02 |
| S1W | 2.46 |
| S1K | 2.61 |
| S1C | 1.88 |
| L10F | 3.78 |
| L10G | 3.89 |
| L10C | 2.73 |
| L10R | 2.19 |
| L10P | 1.74 |
| L10D | 2.72 |
| L10S | 3.19 |
| L10N | 2.69 |
| L10M | 2.39 |
| L10T | 1.93 |

| Variant | protein stability index |
| --- | --- |
| L10K | 2.06 |
| L10A | 2.46 |
| L10E | 3.15 |
| L10H | 2.38 |
| V18N | 3.81 |
| V18E | 4.85 |
| V18W | 2.8 |
| V18Q | 3.02 |
| V18T | 2.86 |
| V18I | 3.5 |
| V18R | 4.14 |
| V18P | 3.35 |
| V18Y | 2.67 |
| V18M | 3.73 |
| V18K | 3.79 |
| V18D | 4.31 |
| V18H | 3.31 |
| R9M | 1.42 |
| R9P | 2.1 |
| R9F | 1.63 |
| R9A | 2.34 |

| Variant | protein stability index |
| --- | --- |
| R9K | 1.92 |
| R9Y | 2.26 |
| R9C | 3.37 |
| R9D | 2.31 |
| R9T | 2.27 |
| R9N | 2.84 |
| R9S | 1.2 |
| R9I | 2.17 |
| R9V | 3.31 |
| R9E | 2.85 |
| R9Q | 2.26 |
| R9W | 1.64 |
| R9H | 2.56 |
| D13G | 2.87 |
| D13S | 3.31 |
| D13T | 2.34 |
| D13C | 2.43 |
| D13Y | 2.07 |
| D13F | 1.07 |
| D13H | 1.49 |
| D13V | 2.88 |

Variants of: B2
Assay: as above
Settings: c terminus: a fixed tail appended

| Variant | protein stability index |
| --- | --- |
| L13Y | 1.72 |
| L13Q | 2.03 |
| L13G | 2.66 |
| L13A | 2.42 |
| L13S | 2.67 |
| L13F | 2.33 |
| L13M | 2.24 |
| L13N | 2.23 |
| L13H | 2.38 |
| E9L | 2.8 |
| E9C | 1.66 |
| R12M | 2.33 |
| R12C | 2.3 |
| R12W | 2 |
| R12H | 3.03 |
| R12F | 2.41 |
| P22C | 3.11 |
| P22H | 2.38 |
| P22N | 2.72 |
| P22R | 2.39 |
| P22W | 1.13 |
| P22K | 2.18 |
| P22E | 2.27 |
| P22S | 2.33 |
| H11E | 2.31 |
| H11R | 2.48 |

| Variant | protein stability index |
| --- | --- |
| H11W | 2.05 |
| H11S | 2.21 |
| H11I | 1.39 |
| Q6G | 1.7 |
| Q6E | 3.63 |
| Q6T | 1.72 |
| L4D | 2.69 |
| L4G | 3.51 |
| L4K | 3.68 |
| L4N | 3.29 |
| L4W | 2.59 |
| C19A | 1.94 |
| C19M | 2.06 |
| C19F | 2.65 |
| C19Q | 2.59 |
| C19H | 1.84 |
| L8D | 2.79 |
| L8T | 2.09 |
| L8P | 2.75 |
| L8V | 2.16 |
| L8Q | 2.11 |
| Y2F | 2.22 |
| Y2K | 2.41 |
| Y2R | 2.58 |
| Y2S | 2.49 |
| P20D | 1.81 |

| Variant | protein stability index |
| --- | --- |
| P20F | 2.83 |
| R3P | 3.04 |
| R3D | 2.71 |
| R3K | 2.58 |
| C15H | 2.28 |
| C15I | 2.48 |
| C15A | 2.07 |
| C15S | 2.64 |
| C15W | 1.75 |
| C15D | 2.24 |
| R18S | 1.94 |
| R18F | 1.79 |
| S17F | 1.75 |
| S17Y | 2.09 |
| T10K | 2.47 |
| T10H | 2.34 |
| T10E | 2.31 |
| T10A | 2.27 |
| T10G | 2.19 |
| P14Q | 1.94 |
| P14K | 1.89 |
| P14T | 1.76 |
| P14E | 2.39 |
| P14N | 1.96 |
| T16S | 1.82 |
| T16P | 1.11 |

| Variant | protein stability index |
| --- | --- |
| T16R | 1.46 |
| F1T | 3.46 |
| F1D | 3.8 |
| F1L | 1.54 |
| F1Y | 2.4 |
| F1P | 3.59 |
| F1M | 2.02 |
| F1E | 3.71 |
| F1N | 3.47 |
| F1G | 4.3 |
| Y5A | 4.45 |
| Y5R | 2.02 |
| Y5D | 3.64 |
| Y5F | 1.98 |
| Y5Q | 2.81 |
| R21N | 1.68 |
| R21F | 1.96 |
| C23S | 2.67 |
| D7C | 1.72 |
| D7M | 1.39 |
| D7K | 2.08 |
| D7L | 1.76 |
| D7G | 2.3 |
| R24I | 1.65 |
| R24K | 2.65 |
| R24N | 1.61 |
